In patent US20200113997A1:

Key:
Man9-V3 glycopeptide = experiment: BLI
[1] = biological target: Man9-V3 glycopeptide (HIV-1 (clade B JRFL mini-V3)); experiment: BLI, biotinylated peptide on streptavidin sensor, bivalent avidity model

| Binder | Kd (Man9-V3 glycopeptide) [µM] | Kd [1] [µM] |
| --- | --- | --- |
| DH270.IA3 (protein) chain 1: QVQLVQSGAEVKKPGASVKVSCKASGYTFTDYYIHWVRQAPGQGLEWMAWINPTTGRTNYARKFQGRVTMTRDTSISTAYMELRRLRSDDTAVYYCARGGWIGLYVDYSGYPNFDSWGQGTLVTVSS chain 2: QSALTQPASVSGSPGQSITISCTGTSYDVGSYNLVSWYQQHPGKAPKLMIYEVSKWPSGVSNRFSGSKSGNTASLTISGLQAEDEADYYCCSYAGSSTVIFGGGTKLTVL | > 10 | – |
| DH270.IA2 (protein) chain 1: QVQLVQSGAEMKKPGASVKVSCKASGYTFTDYYIHWVRQAPGQGLEWMGWINPNTGRTNYAQKFQGRVTMTRDTSISTAYMELSRLTSDDTAVYYCATGGWIGLYYDSSGYPNFDYWGQGTLVTVSS chain 2: QSALTQPASVSGSPGQSITISCTGTSYDVGSYNLVSWYQQHPGKAPKYMIYEVNKRPSGVSNRFSGSKSGNTASLTISGLQAEDEADYYCCSYAGSSTVIFGGGTKLTVL | > 10 | – |
| DH270.IA1 (protein) chain 1: QVQLVQSGAEVKKPGASVKVSCKASGYTFTDYYIHWVRQAPGQGLEWMGWINPNTGRTNYAQKFQGRVIMTRDTSISTAYMELSRLRSDDTAVYYCARGGWIGLYYDSSGYPNFDYWGQGTLVTVSS chain 2: QSALTQPASVSGSPGQSITISCTGTSYDVGSYNLVSWYQQHPGKAPKLMIYEVSKRPSGVSNRFSGSKSGNTASLTISGLQAEDEADYYCCSYAGSSTVIFGGGTKLTVL | 3.29 | – |
| DH270.6 (antibody, V domains shown) VH: QVQLVQSGAQMKNPGASVKVSCAPSGYTFTDFYIHWLRQAPGQGLQWMGWMNPQTGRTNTARNFQGRVIMTRDTSIGTAYMELRSLTSDDTAIYYCTTGGWISLYYDSSYYPNFDHWGQGTLLTVSS VL: TSLLTQPASVSGSPGQSITISCTGTKYDVGSHDLVSWYQQYPGKVPKYMIYEVNKRPSGVSNRFSGSKSGNTASLTISGLRAEDEADYYCCSFGGSATVVCGGGTKVTVL | – | 0.188 |
